Test results taken from patent publication US20250084406A1 (University of California, published 2025).

Assays:
155B-VP16 = biological target: T1, 155B-VP16; test: split TF YFP reporter assay in S. cerevisiae (all-by-all matrix, FIG. 1D)
T1 construct: Expressed in S. cerevisiae; also called DHD155B fused to VP16
T1 chain: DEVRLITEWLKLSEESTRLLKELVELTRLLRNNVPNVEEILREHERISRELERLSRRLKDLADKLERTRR

154B-VP16 = biological target: T2, 154B-VP16; test: competition in the split TF YFP reporter assay in yeast, layout of FIG. 2A (FIG. 2D)
T2 construct: Expressed in S. cerevisiae; also called DHD154B fused to VP16
T2 chain: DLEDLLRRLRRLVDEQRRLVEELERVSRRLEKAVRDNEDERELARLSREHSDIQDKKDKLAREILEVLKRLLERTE

[1] = biological target: T3, DHD37B (fusion partner in the split TF assay not stated for this statement); test: split TF YFP reporter assay in S. cerevisiae (all-by-all matrix, FIG. 1D); orientation of the fusions not told
T3 construct: not shown: fused to VP16 or ZF43_8
T3 chain: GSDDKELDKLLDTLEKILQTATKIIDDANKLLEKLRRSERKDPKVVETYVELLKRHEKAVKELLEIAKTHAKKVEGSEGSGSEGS

37B-VP16 = biological target: T4, 37B-VP16; test: split TF YFP reporter assay in S. cerevisiae (all-by-all matrix, FIG. 1D)
T4 construct: Expressed in S. cerevisiae; also called DHD37B fused to VP16; 37B DHD-AD
T4 chain: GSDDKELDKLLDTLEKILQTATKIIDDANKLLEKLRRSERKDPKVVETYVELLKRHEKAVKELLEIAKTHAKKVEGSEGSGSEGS

B1: 155A-ZF43_8 (designed binder)
chain: PEDDVVRIIKEDLESNREVLREQKEIHRILELVTRGEVSEEAIDRVLKRQEDLLKKQKESTDKARKVVEERR
notes: Expressed in S. cerevisiae; also called DHD155A fused to ZF43_8
155B-VP16
  binding result: binds

B2: 154A dominant negative (designed binder)
chain: TAEELLEVHKKSDRVTKEHLRVSEEILKVVEVLTRGEVSSEVLKRVLRKLEELTDKLRRVTEEQRRVVEKLN
notes: also called DN
154B-VP16
  binding result: binds

B3: DHD13B (fusion partner in the split TF assay not stated for this statement) (designed binder)
chain: GTEKRLLEEAERAHREQKEIIKKAQELHRRLEEIVRQSGSSEEAKKEAKKILEEIRELSKRSLELLREILYLSQEQKGSEGSGSEGS
notes: not shown: fused to VP16 or ZF43_8
[1]
  binding result: binds

B4: 37A-ZF43_8 (designed binder)
chain: DSDEHLKKLKTFLENLRRHLDRLDKHIKQLRDILSENPEDERVKDVIDLSERSVRIVKTVIKIFEDSVRKKEGSEGSGSEGS
notes: Expressed in S. cerevisiae; also called DHD37A fused to ZF43_8; 37A DHD-DBD
37B-VP16
  binding result: binds
